Experimental findings from patent US20250302962A1, “BIOCONJUGATE COMPRISING A PHOTOSENSITIZER UNIT, METHOD FOR ITS PREPARATION AND USE THEREOF” (UNIVERSITE DE BORDEAUX, priority 2021, published 2025) are described below.

Assay type in all cases: physicochemical
The nature of data set [1]: Singlet oxygen quantum yield of the phthalocyanine. The conditions noted are these: measured in dimethylsulfoxide. From the text: It has particularly outstanding photo-physical properties. […] Singlet oxygen quantum yield of this phthalocyanine, measured in dimethylsulfoxide, mounts up to ϕΔ=0.72. The presence of the tert-butyl groups not only minimizes the formation of molecular aggregates, but also increases the solubility of the compound in organic solvents.

Data set [2] in a line: Dynamic light scattering size distribution of TT1-ELP and TT1-ELP^PhOx. As to the method:
Dynamic light scattering: The DLS measurements of TT1-ELP (at 20° C. and 37° C.) and TT1-ELP^PhOx (at 37° C.) are performed on a Nano ZS 90 instrument (HeNe laser 632.8 nm, Malvern) at a 90° angle at a constant position in the cuvette (constant scattering volume at 30 μM concentration in 1×PBS, pH 7.4). The values of Z-average hydrodynamic diameter (DH) and polydispersity index (PDI) are obtained from the 2nd order cumulant fit using a CONTIN-like algorithm.
In order to mimic the self-assembly and photooxidation-triggered disassembly profile of TT1-ELP, dynamic light scattering (DLS) measurements are performed in physiological conditions (PBS pH 7.4 at 37° C.) on TT1-ELP and TT1-ELP^PhOx.
Due to the stacking tendency of TT1 upon direct dissolution of TT1-ELP in PBS at ambient temperature, 60 nm micelles with narrow size distribution (PDI 0.2) are observed in DLS measurement conducted at 165° angle via 657 nm laser (FIG. 5-A)).

The nature of data set [3]: Turbidity assay, onset transition temperature (Tt) of ELP and TT1 bioconjugates in PBS. The note with it: for Tt in PBS: PBS pH 7.4, onset transition temperature. On the procedure: UV-Vis spectroscopy: The transition temperatures (Tt) are determined by following the turbidity at 600 or 500 nm absorption versus temperature on Agilent Cary 100 UV-Vis spectrophotometer equipped with a multicell thermo-electric temperature controller. Turbidity is measured over a temperature range from 10 to 60° C. at 1° C. min^−1 of a scan rate before and after the conjugation reaction at three concentrations of phthalocyanine (10, 20 and 30 μM) in phosphate buffer (PBS, pH 7.4).
The thermo-responsive character of ELP, before and after TT1 conjugation, is measured by turbidity assays in phosphate buffer (PBS, pH 7.4) following the absorbance at 600 and 500 nm, respectively, over a temperature range from 10 to 60° C.
The same analysis is carried out for TT1-ELP(O) (obtained by chemical oxidation of methionyl groups) and TT1-ELP^PhOx (obtained by oxidation triggered by photo-irradiation of methionyl groups).

Setting [4] is: direct dissolution in PBS, ambient temperature, 165° angle, 657 nm laser.

As for “9(10),16(17),23(24)-Tri-tert-butyl-2-carboxy-5,28:14,19-diimino-7,12:21,26-dinitrilotetrabenzo[c,h,m,r][1,6,11,16]tetraazacycloeicosinato-(2)-N^29,N^30,N^31,N^32zinc(II) [TT1]”, the “Singlet oxygen quantum yield ϕΔ” value in data set [1] turned out to be 0.72.

B1: TT1-ELP: phthalocyanine TT1 coupled by CuAAC triazole linker to the N-terminus of ELP (SEQ ID No: 11) (conjugate)
chain: MWVPGVGVPGMGVPGVGVPGVGVPGVGVPGMGVPGVGVPGVGVPGVGVPGMGVPGVGVPGVGVPGVGVPGMGVPGVGVPGVGVPGVGVPGMGVPGVGVPGVGVPGVGVPGMGVPGVGVPGVGVPGVGVPGMGVPGVGVPGVGVPGVGVPGMGVPGVGVPGVGVPGVGVPGMGVPGVGVPGVGVPGVGVPGMGVPGVGVPGVG
modifications: N-terminal phthalocyanine TT1 via triazole; Elastin-like polypeptide
As for B1, the “particle size (hydrodynamic diameter)” value in data set [2] (above Tt, 37° C., PBS pH 7.4) is reported as 1.5 μm. In addition, in data set [2] (setting [4]), the PDI is 0.2. In data set [2] (setting [4]), this molecule showed a micelle size of 60 nm. In addition, the “aggregation state by DLS” value in data set [2] (temperature dropped back to 20° C., PBS pH 7.4) was “disassembly of these aggregates”. The “Tt in PBS” value in data set [3] (10 μM) was found to be 29 °C; in data set [3] (20 μM), 28 °C. Moreover, the solubility result in data set [3] (10, 20 and 30 μM in PBS pH 7.4 at 10° C.) is recorded as “fully soluble”. Moreover, the “drop of Tt after conjugation of TT1” value in data set [3] (versus ELP, PBS pH 7.4) is “approximately 10 °C”.
